From US20130115220A1, “METHOD FOR PREVENTION OR TREATMENT OF METABOLIC SYNDROME” (DAINIPPON SUMITOMO PHARMA CO., LTD., priority 2010, published 2013)

Tested on: 3T3-L1 preadipocytes
Experiment: Differentiation of 3T3-L1 preadipocytes into mature adipocytes, lipid droplet formation by oil-red-O
Assay type: cell-based
Conditions: human rAIM used for AIM loading
Procedure: To examine the function of AIM produced by macrophage that infiltrated into adipose tissue on the surrounding adipocytes, an experiment was performed to load AIM in the culture process for differentiation of 3T3-L1 preadipocytes into mature adipocytes.
As AIM, recombinant AIM protein (rAIM) of mouse was used. rAIM was prepared by culturing human-derived HEK293T cells transfected with a vector expressing mouse AIM (pCAGGS-mAIM-HA plasmid) in a serum-free medium (FreeStyle™ 293 Expression Medium; Invitrogen). rAIM was purified from the culture supernatant thereof using an anti-HA antibody column. In other Reference Examples shown below, AIM used was a similar rAIM protein. AIM was loaded by adding AIM to a culture medium at a concentration of 5 μg/ml.
In addition, differentiation of 3T3-L1 cells was induced as shown in FIG. 13 by first proliferating 3T3-L1 cells by cultivating for 4 days (day(−2)-day 2), after which cultivating in a culture medium containing insulin, dexamethasone (DEX) and isobutylmethylxanthine (IBMX) for 2 days (day 2-day 4) to start differentiation induction stimulation, and further cultivating in a culture medium containing insulin for 2 days (day 4-day 6).
After the differentiation induction stimulation period (day 2-day 6), the cells were continuously cultured in a culture medium free of such differentiation induction stimulation factors. Then, the cells on day 10 day from the start of the differentiation induction stimulation (day 12) were stained with oil-red-O, and the state of differentiation of 3T3-L1 cells into mature adipocytes was observed.

B1: human rAIM: human AIM protein labeled with HA-tag produced in HEK293T cells (protein)
chain: SPSGVRLVGGLHRCEGRVEVEQKGQWGTVCDDGWDIKDVAVLCRELGCGAASGTPSGILYEPPAEKEQKVLIQSVSCTGTEDTLAQCEQEEVYDCSHDEDAGASCENPESSFSPVPEGVRLADGPGHCKGRVEVKHQNQWYTVCQTGWSLRAAKVVCRQLGCGRAVLTQKRCNKHAYGRKPIWLSQMSCSGREATLQDCPSGPWGKNTCNHDEDTWVECEDPFDLRLVGGDNLCSGRLEVLHKGVWGSVCDDNWGEKEDQVVCKQLGCGKSLSPSFRDRKCYGPGVGRIWLDNVRCSGEEQSLEQCQHRFWGFHDCTHQEDVAVICSG
modifications: left off: small tags and cut ends
notes: human AIM protein labeled with HA-tag produced in HEK293T cells
- differentiation of mouse-derived 3T3-L1 cells: similarly suppressed
